T1: leukocidin GH (LukGH) wild-type (Staphylococcus aureus USA300 (ST8) …)
T1 chain 1: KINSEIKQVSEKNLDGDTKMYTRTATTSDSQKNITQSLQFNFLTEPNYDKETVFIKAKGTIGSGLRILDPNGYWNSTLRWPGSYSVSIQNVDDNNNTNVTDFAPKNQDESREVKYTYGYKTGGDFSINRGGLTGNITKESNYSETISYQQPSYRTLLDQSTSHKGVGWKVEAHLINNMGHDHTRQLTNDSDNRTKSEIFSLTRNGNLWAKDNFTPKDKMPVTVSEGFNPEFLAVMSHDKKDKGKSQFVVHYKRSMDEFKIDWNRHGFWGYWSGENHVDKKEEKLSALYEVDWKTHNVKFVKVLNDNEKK
T1 chain 2: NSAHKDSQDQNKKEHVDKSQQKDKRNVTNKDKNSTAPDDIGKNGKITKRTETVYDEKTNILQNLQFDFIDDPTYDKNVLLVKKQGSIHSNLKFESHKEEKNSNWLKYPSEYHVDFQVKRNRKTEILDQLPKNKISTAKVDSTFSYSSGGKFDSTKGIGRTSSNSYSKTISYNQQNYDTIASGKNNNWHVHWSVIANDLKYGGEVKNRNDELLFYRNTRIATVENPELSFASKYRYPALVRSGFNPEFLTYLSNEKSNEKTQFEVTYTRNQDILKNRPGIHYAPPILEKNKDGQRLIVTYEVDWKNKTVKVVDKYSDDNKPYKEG


Legend:
[1] = target: mouse CD11b I-domain (moCD11b-I) (mouse) (UniProt P05555); test: BLI
mouse CD11b I-domain (moCD11b-I) (mouse), sequence (P05555 143-337): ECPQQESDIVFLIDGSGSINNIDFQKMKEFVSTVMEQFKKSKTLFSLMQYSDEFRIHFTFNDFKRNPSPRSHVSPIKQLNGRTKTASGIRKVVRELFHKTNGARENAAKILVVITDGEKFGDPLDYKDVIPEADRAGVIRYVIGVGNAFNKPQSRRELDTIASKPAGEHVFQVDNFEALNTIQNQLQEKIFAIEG

[2] = target: human CD11b I-domain (huCD11b-I) (human); test: SAXS
[3] = target: T1, leukocidin GH (LukGH) wild-type; test: SAXS

binding result [3]	Molecule	Kd [1]	stoichiometry N [2]
–	LukGH^K319A (complex)	63 nM	–
–	leukocidin GH (LukGH) wild-type (complex)	1000 nM	1
binds	Fab of αLukGH-mAb#5.H1H2 (Fab, V domains shown) VH: ELQLQESGPGLVKPSETLSLTCTVSGGSISSGSYYWDWIRQPPGKGLEWIGNIYKSGSTYYNPSLKSRVTISVDTSKNQFSLKLSSVTAADTAVYYCARERGMHYMDVWGKGTTVTVSS VL: DIQMTQSPSSLSASVGDRVTITCRASQSINSYLNWYQQKPGKAPKLLIYAASSLQSGVPSRFSGSGSGTDFTLTISSLQPEDFATYYCQQQFDPPFTFGGGTKVEIK	–	–

Reference: PMC6955338 (Proceedings of the National Academy of Sciences of the …, 2019)
